This passage reports Kd results from publication PMC8936114.

The target in this data set is NSP12 (RNA-dependent RNA polymerase) (SARS-CoV-2, UniProt P0DTD1 4393-5324). The experiment in a line: filter binding; 20 mM Tris, 200 mM KCl, room temperature, 1 h; pH not stated; […]. Conditions: protein: commercial; tags: His; label: 3' biotin; stem loops.

B1: Scov2_7431_7555_RNA (structured_RNA)
RNA: GGGCGAAAACGCCCCAUUUUAUUAUGUAUGGAAAAGUUAUGUGCAUGUUGUAGACGGUUGUAAUUCAUCAACUUGUAUGAUGUGUUACAAACGUAAUAGAGCAACAAGAGUCGAAUGUACAACUAUUGUUAAUGGUGUU
modifications: 3' biotinylation (Pierce RNA 3' End Biotinylation Kit)
As a reminder, the Kd is the equilibrium constant for the complex coming apart. The low end stands for a tighter complex, the high end for a looser complex. The molecule B1 registered a Kd of 0.017 µM.
